Assays:
[1] = target: T1, ER (Homo sapiens, UniProt P03372); assay: ER transcription activity, ERE-CAT reporter (Example 1); format: cell-based; details: DU145 cells
T1 construct: expressed in transfected cells; host or cells: DU145
T1 sequence (P03372 1-595): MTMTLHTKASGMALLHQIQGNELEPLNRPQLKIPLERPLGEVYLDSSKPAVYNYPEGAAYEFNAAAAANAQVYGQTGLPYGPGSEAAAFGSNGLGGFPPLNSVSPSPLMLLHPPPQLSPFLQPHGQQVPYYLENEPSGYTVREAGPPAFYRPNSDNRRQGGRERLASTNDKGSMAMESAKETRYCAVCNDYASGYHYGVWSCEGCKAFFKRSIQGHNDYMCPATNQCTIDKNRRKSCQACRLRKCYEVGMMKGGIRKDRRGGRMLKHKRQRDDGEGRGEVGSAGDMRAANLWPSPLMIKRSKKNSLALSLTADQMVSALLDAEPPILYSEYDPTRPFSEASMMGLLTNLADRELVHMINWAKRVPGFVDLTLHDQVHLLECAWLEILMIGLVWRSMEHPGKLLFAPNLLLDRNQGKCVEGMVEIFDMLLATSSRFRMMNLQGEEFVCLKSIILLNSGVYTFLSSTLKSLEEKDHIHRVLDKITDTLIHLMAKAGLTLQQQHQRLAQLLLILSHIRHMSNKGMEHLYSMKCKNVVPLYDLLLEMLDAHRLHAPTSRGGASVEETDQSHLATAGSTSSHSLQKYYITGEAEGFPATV
Procedure: (§1) 366. Human prostate cancer DU145 or PC3 cells, or human lung carcinoma cells NCI H1299 were grown in Dulbecco's minimal essential medium (DMEM) containing penicillin (25 U/ml), streptomycin (25˜g/ml), and 5% fetal calf serum (FCS). One hour before transfection, the medium was changed to DMEM with 5% charcoal-stripped FCS. Phenol red-free and serum-free media were used on the experiments employing E2 or TGF-β, respectively. A β-galactosidase expression plasmid, pCMV-β-gal, was used as an internal control for transfection efficiency.
(§2) 367. Cells were transfected using the calcium phosphate technique (Yeh, et al. Molec. Endocrinol. 8:77-88, 1994). The medium was changed 24 hr posttransfection and the cells treated with either steroid hormones or hydroxyflutamide, and cultured for an additional 24 hr. Cells were harvested and assayed for CAT activity after the cell lysates were normalized by using β-galactosidaseas an internal control. Chloramphenicol acetyltransferase (CA) activity was visualized by PhosphorImager (Molecular Dynamics) and quantitated by ImageQuant software (Molecular Dynamics).

[2] = target: T2, PR (Homo sapiens, UniProt P06401); details: previous studies; cited from earlier work
T2 construct: expressed in transfected cells; host or cells: DU145, PC-3
T2 sequence (P06401 1-933): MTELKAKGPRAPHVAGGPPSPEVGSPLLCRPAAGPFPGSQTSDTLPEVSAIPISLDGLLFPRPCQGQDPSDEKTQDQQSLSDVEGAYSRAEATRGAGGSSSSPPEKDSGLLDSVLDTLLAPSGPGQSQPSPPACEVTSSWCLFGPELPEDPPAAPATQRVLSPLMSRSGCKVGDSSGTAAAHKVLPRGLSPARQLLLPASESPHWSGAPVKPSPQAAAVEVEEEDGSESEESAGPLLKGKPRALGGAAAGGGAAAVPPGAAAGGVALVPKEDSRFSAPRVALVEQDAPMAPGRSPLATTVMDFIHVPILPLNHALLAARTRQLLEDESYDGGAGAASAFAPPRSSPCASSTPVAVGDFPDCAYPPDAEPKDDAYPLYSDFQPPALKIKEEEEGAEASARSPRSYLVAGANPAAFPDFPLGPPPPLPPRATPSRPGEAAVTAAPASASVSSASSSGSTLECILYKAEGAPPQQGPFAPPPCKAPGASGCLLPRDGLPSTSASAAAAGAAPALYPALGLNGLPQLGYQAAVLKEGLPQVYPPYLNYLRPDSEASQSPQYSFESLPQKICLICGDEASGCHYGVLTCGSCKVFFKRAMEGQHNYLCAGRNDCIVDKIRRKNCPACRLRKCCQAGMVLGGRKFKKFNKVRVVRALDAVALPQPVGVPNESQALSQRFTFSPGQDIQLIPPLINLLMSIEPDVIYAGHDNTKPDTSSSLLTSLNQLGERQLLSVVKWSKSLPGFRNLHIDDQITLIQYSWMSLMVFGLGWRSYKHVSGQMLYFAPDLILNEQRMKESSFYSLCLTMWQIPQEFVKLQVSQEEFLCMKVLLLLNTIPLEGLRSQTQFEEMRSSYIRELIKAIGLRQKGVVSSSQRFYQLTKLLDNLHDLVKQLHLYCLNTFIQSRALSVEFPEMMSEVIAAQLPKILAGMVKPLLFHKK

[3] = target: T3, GR (Homo sapiens, UniProt P04150); assay: GR transcription activity, MMTV-CAT reporter (Example 1); format: cell-based; parameters: expressed in transfected cells; host or cells: DU145; details: DU145 cells
T3 sequence (P04150 1-777): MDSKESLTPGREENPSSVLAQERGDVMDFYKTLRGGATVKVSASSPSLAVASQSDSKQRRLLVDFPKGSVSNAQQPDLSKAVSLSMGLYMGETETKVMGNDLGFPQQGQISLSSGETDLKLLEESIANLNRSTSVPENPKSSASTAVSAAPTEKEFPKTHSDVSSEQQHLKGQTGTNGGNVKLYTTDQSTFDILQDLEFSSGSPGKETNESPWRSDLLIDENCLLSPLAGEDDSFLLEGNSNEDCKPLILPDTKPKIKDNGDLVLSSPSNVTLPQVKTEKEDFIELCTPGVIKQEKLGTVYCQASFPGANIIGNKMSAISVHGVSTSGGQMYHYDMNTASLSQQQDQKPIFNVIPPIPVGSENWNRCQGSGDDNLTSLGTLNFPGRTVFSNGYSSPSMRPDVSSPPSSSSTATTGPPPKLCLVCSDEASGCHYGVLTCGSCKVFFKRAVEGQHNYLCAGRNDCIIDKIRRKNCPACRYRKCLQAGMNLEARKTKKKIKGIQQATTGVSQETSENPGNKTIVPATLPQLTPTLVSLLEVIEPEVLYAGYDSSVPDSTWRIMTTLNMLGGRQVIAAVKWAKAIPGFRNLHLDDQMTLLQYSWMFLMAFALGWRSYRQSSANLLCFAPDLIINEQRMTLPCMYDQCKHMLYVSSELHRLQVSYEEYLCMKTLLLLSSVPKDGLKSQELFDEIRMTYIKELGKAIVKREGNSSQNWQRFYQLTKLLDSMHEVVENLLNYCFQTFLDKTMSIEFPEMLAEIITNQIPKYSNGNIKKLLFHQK
Procedure: as §1, §2

- effect on ER transcription activity [1]: less than 2 fold
- effect on GR transcription activity [3]: less than 2 fold
B1: ARA54: 54 kDa protein that interacts with AR in an androgen-dependent manner; AR coactivator (protein)
chain: MSSEDREAQEDELLALASIYDGDEFRKAESVQGGETRIYLDLPQNFKIFVSGNSNECLQNSGFEYTICFLPPLVLNFELPPDYPSSSPPSFTLSGKWLSPTQLSALCKHLDNLWEEHRGSVVLFAWMQFLKEETLAYLNIVSPFELKIGSQKKVQRRTAQASPNTELDFGGAAGSDVDQEEIVDERAVQDVESLSNLIQEILDFDQAQQIKCFNSKLFLCSICFCEKLGSECMYFLECRHVYCKACLKDYFEIQIRDGQVQCLNCPEPKCPSVATPGQVKELVEAELFARYDRLLLQSSLDLMADVVYCPRPCCQLPVMQEPGCTMGICSSCNFAFCTLCRLTYHGVSPCKVTAEKLMDLRNEYLQADEANKRLLDQRYGKRVIQKALEEMESKEWLEKNSKSCPCCGTPIEKLDGCNKMTCTGCMQYFCWICMGSLSRANPYKHFNDPGSPCFNRLFYAVDVDDDIWEDEVED
- enhancement of the transcription activity of PR [2]: up to 4 fold

Source: patent publication US20060270591A1, “Androgen receptor coregulators” (priority 2002, published 2006)
